These results are taken from patent publication US5789157.

The data set concerns unidentified red blood cell ghost membrane protein, apparent 105 kDa (target of c56t) (Homo sapiens). The data set can be described thus: filter. The settings on record: Scatchard on whole RBC ghosts, estimated, 1900 sites per cell; target taken as the 105 kDa protein from crosslinking.

Consider “AACTCAGTGGTAGGTAACGGTT [C56T (22-nt truncate of clone 56)]”, for which the Kd is 0.042 nM.
